Substitutions are numbered along the chain they refer to. Numbers in names are those of the source.
T1: hGITR.mFc (dimeric recombinant human GITR ectodomain protein, mouse Fc fusion) (human)
T1 construct: also called dimeric human GITR; dimeric GITR
T1 chain: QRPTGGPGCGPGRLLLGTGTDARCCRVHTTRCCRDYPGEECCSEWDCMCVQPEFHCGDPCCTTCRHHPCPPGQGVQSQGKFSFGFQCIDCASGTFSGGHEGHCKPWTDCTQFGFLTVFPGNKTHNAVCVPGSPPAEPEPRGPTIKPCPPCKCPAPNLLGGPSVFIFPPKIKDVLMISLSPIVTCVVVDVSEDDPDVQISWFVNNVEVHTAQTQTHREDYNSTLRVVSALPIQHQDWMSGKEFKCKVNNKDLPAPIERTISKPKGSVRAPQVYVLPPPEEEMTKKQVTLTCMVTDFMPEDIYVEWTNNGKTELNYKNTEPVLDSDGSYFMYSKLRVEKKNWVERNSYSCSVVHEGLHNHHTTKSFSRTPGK

B1: hGITR.mmH (soluble monomeric recombinant human GITR ectodomain protein) (receptor)
chain: QRPTGGPGCGPGRLLLGTGTDARCCRVHTTRCCRDYPGEECCSEWDCMCVQPEFHCGDPCCTTCRHHPCPPGQGVQSQGKFSFGFQCIDCASGTFSGGHEGHCKPWTDCTQFGFLTVFPGNKTHNAVCVPGSPPAEPEQKLISEEDLGGEQKLISEEDLHHHHHH
notes: also called monomeric human GITR
B2: mAb2 (antibody, human IgG1, kappa, V domains shown)
VH: QVQLQESGPGLVKPSETLSLTCIVSGGSISGYFWNWIRQPPGKGLEWIGYIYYSGTTIYNPSLKSRFTISLDTSKNQFSLKLTSVTAADTAVYYCARESYEPSPRYFDHWGQGTLVTVSS
VL: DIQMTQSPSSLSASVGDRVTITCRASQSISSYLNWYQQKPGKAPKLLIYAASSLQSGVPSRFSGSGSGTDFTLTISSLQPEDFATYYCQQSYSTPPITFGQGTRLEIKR
notes: Human IgG1; N101E variant of CompAb1; also called N101E Variant; N101E
B3: CompAb1 (antibody, V domains shown)
VH: B2 VH with E101N
VL: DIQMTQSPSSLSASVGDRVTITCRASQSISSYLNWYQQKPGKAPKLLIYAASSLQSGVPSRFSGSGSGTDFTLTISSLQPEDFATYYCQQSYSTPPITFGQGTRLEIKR
notes: Human IgG1; also called WT; Sample Number 1
B4: CompAb1 heavy chain variant N101W (antibody, human IgG1, V domains shown)
VH: B2 VH with E101W
VL: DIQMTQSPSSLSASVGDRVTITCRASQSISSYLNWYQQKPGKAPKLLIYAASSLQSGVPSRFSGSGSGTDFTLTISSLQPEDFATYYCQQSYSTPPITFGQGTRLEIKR
notes: human IgG1 constant region; tested as CHOt supernatant; also called Sample Number 18
B5: mAb4 (antibody, human IgG1, kappa, V domains shown)
VH: B2 VH with E101T
VL: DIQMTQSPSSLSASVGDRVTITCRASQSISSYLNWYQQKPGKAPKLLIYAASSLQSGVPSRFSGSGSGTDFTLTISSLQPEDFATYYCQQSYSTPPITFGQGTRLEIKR
notes: Human IgG1; N101T variant of CompAb1; also called N101T Variant; N101T
B6: CompAb1 heavy chain variant N101F (antibody, human IgG1, V domains shown)
VH: B2 VH with E101F
VL: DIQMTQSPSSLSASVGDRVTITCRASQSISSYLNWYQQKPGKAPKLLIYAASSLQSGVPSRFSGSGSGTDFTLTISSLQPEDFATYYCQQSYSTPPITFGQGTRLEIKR
notes: human IgG1 constant region; tested as CHOt supernatant; also called Sample Number 5
B7: CompAb1 heavy chain variant N101Y (antibody, human IgG1, V domains shown)
VH: B2 VH with E101Y
VL: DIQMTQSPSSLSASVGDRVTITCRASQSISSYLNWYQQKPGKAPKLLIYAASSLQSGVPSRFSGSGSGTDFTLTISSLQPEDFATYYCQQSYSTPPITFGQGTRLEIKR
notes: human IgG1 constant region; tested as CHOt supernatant; also called Sample Number 19
B8: mAb3 (antibody, human IgG1, kappa, V domains shown)
VH: B2 VH with E101S
VL: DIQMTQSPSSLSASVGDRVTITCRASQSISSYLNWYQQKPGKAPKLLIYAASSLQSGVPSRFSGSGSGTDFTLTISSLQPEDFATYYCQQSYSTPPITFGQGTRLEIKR
notes: Human IgG1; N101S variant of CompAb1; also called N101S Variant; N101S
B9: CompAb1 heavy chain variant N101P (antibody, human IgG1, V domains shown)
VH: B2 VH with E101P
VL: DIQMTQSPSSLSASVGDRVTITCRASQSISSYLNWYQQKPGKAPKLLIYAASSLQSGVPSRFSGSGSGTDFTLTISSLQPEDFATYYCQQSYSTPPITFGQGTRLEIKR
notes: human IgG1 constant region; tested as CHOt supernatant; also called Sample Number 12
B10: CompAb1 heavy chain variant N101L (antibody, human IgG1, V domains shown)
VH: B2 VH with E101L
VL: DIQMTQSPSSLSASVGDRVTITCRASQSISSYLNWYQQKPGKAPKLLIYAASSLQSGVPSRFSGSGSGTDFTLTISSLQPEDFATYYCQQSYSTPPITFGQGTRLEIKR
notes: human IgG1 constant region; tested as CHOt supernatant; also called Sample Number 10
B11: CompAb1 heavy chain variant N101H (antibody, human IgG1, V domains shown)
VH: B2 VH with E101H
VL: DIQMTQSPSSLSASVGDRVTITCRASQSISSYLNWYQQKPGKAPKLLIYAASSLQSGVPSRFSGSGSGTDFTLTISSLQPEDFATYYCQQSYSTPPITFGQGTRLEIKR
notes: human IgG1 constant region; tested as CHOt supernatant; also called Sample Number 7
B12: CompAb1 heavy chain variant N101A (antibody, human IgG1, V domains shown)
VH: B2 VH with E101A
VL: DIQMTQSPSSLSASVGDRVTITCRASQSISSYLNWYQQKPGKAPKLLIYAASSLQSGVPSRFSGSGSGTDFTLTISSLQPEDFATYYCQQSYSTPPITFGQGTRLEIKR
notes: human IgG1 constant region; tested as CHOt supernatant; also called Sample Number 2
B13: CompAb1 heavy chain variant S103K (antibody, human IgG1, V domains shown)
VH: B2 VH with E101N, S103K
VL: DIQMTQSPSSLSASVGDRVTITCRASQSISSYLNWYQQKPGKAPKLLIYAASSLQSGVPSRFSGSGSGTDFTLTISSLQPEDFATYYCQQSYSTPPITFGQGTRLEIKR
notes: human IgG1 constant region; tested as CHOt supernatant; also called Sample Number 27
B14: CompAb1 heavy chain variant S103R (antibody, human IgG1, V domains shown)
VH: B2 VH with E101N, S103R
VL: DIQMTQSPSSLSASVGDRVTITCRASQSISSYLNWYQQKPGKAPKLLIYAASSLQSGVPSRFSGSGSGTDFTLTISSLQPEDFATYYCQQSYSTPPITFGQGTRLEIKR
notes: human IgG1 constant region; tested as CHOt supernatant; also called Sample Number 33

What was measured:
[1] = biological target: human GITR-L (6His.GCN4.G4Sx3.hGITR-L) (human, UniProt Q9UNG2 52-177); assay: ELISA: hGITR.mmH (3.4 pM to 200 nM) on plate-coated hGITR-L, anti-cMyc-HRP detection
Description: FIG. 13 depicts effects of anti-GITR antibody on human GITR binding to human GITR-L. Binding of human GITR protein, hGITR.mmH, at a range of concentrations (3.4 pM to 200 nM) to immobilized human GITR-L was evaluated by ELISA and EC₅₀ values for binding were determined. A fixed concentration of recombinant hGITR.mmH (1.5 nM), based on the EC₅₀ values calculated for binding to hGITR-L, was pre-incubated with mAb1, or an IgG1 isotype control at a range of concentrations (51 pM to 3 μM) and added to wells containing immobilized human GITR-L to determine the ability of the antibodies to block hGITR.mmH binding to immobilized human GITR-L. Binding of hGITR.mmH was detected with an HRP-conjugated cMyc antibody using TMB substrate, and the OD₄₅₀ was measured by spectrophotometry.
The binding of recombinant hGITR to its ligand, hGITR-L, was determined using an enzyme-linked immunosorbent assay (ELISA)-based binding assay. […] Plate-bound hGITR.mmH was detected with horseradish peroxidase (HRP) conjugated goat anti-cMyc antibody at 0.33 μg/ml and visualized using the colorimetric HRP substrate 3-3′, 5-5′-tetramethylbenzidine (TMB) according to the manufacturer's recommended procedures. Absorbance data at 450 nm (OD₄₅₀) were plotted as a function of the concentration of recombinant hGITR.mmH. […]

[2] = biological target: T1, hGITR.mFc (dimeric recombinant human …); assay: SPR Biacore 2000 25C; CHOt supernatant antibody captured on anti-human Fc; 50 nM hGITR.mFc
Description: (§1) Biacore experiments for antibodies secreted in conditioned culture medium were performed as follows. Using a Biacore 2000 instrument at 25° C., antibodies were captured for 80 seconds at a flow rate of 8 uL/min on a CM5 anti-humanFc-coupled surface. Approximately 1000-2000 RU of each antibody were captured. 100 nM hGITR.mmH (soluble monomeric hGITR, SEQ ID NO: 45) or 50 nM hGITR.mFc (dimeric Macaca fasicularis GITR, SEQ ID NO: 46) were injected over this surface for 2 minutes at a flow rate of 50 uL/min. Dissociation was measured for 2 minutes. The KD and t_{1/2} were calculated by fitting the double-referenced sensorgrams to a 1:1 binding model.

[3] = biological target: T1, hGITR.mFc (dimeric recombinant human …); assay: SPR Biacore T-200; purified antibody captured on anti-human Fc; 5 nM hGITR.mFc
Description: (§2) For purified antibodies, Biacore experiments were performed as follows. Using a Biacore T-200 instrument, antibodies were captured for 30 seconds at a flow rate of 8 uL/min on a CM5 anti-humanFc-coupled surface. Approximately 120 RU of each antibody were captured. 10 nM hGITR.mmH (soluble monomeric hGITR, SEQ ID NO: 45) or 5 nM hGITR.mFc (dimeric Macaca fasicularis GITR, SEQ ID NO: 46) were injected over this surface for 5 minutes at a flow rate of 50 uL/min. Dissociation was measured for 10 min. The KD and t_{1/2} were calculated by fitting the double-referenced sensorgrams to a 1:1 binding model.

[4] = biological target: B1; assay: SPR Biacore 2000 25C; CHOt supernatant antibody captured on anti-human Fc; 100 nM hGITR.mmH
Description: as §1

[5] = biological target: B1; assay: SPR Biacore T-200; purified antibody captured on anti-human Fc; 10 nM hGITR.mmH
Description: as §2

[6] = biological target: T1, hGITR.mFc (dimeric recombinant human …); assay: SPR Biacore 2000 25C; CHOt supernatant antibody captured on anti-human Fc
Description: as §1

[7] = biological target: B1; assay: as above
Description: as §1

Sequence of human GITR-L (6His.GCN4.G4Sx3.hGITR-L) (Q9UNG2 52-177): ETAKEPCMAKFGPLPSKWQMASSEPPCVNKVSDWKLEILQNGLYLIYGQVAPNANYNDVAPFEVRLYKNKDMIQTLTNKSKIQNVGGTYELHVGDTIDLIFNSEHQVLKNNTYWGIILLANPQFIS

Question: With B1 as the binder, how does the EC50 [1] read?
Answer: 2.05 nM

Question: Which Kd [2] does the source give for B2 here?
Answer: 1.27 nM

Question: What about the t1/2 [2] of the same binder?
Answer: 34.9 min

Question: What about the Kd [3] of the same binder?
Answer: 0.902 nM

Question: And the t1/2 [3]?
Answer: 9.55 min

Question: What about the Kd [4] of the same binder?
Answer: 109 nM

Question: What about the t1/2 [4] of the same binder?
Answer: 0.99 min

Question: What about the Kd [5] of the same binder?
Answer: 11.3 nM

Question: And the t1/2 [5]?
Answer: 2.8 min

Question: With B3 as the binder, how does the Kd [2] read?
Answer: 0.201 nM

Question: What about the t1/2 [2] of the same binder?
Answer: 194 min

Question: And the Kd [3]?
Answer: 0.137 nM

Question: What about the t1/2 [3] of the same binder?
Answer: 35.6 min

Question: And the Kd [4]?
Answer: 24.9 nM

Question: And the t1/2 [4]?
Answer: 4.56 min

Question: And the Kd [5]?
Answer: 1.51 nM

Question: And the t1/2 [5]?
Answer: 6.75 min

Question: Does B4 bind [6]?
Answer: no binding (tested: 50 nM hGITR.mFc)

Question: Does B4 bind [7]?
Answer: no binding (tested: 100 nM hGITR.mmH)

Question: B5 was tested. Which Kd [2] did it give?
Answer: 0.284 nM

Question: What about the t1/2 [2] of the same binder?
Answer: 110 min

Question: What about the Kd [3] of the same binder?
Answer: 0.663 nM

Question: And the t1/2 [3]?
Answer: 10 min

Question: And the Kd [4]?
Answer: 61.3 nM

Question: What about the t1/2 [4] of the same binder?
Answer: 1.52 min

Question: What about the Kd [5] of the same binder?
Answer: 8 nM

Question: What about the t1/2 [5] of the same binder?
Answer: 2.25 min

Question: Does B6 bind [6]?
Answer: no binding (tested: 50 nM hGITR.mFc)

Question: Does B6 bind [7]?
Answer: no binding (tested: 100 nM hGITR.mmH)

Question: What does the source list for B7?
Answer: binding result [6]: no binding (tested: 50 nM hGITR.mFc); binding result [7]: no binding (tested: 100 nM hGITR.mmH)

Question: Which Kd [2] does the source give for B8 here?
Answer: 0.908 nM

Question: And the t1/2 [2]?
Answer: 37.7 min

Question: And the Kd [3]?
Answer: 0.882 nM

Question: What about the t1/2 [3] of the same binder?
Answer: 5.56 min

Question: What about the Kd [4] of the same binder?
Answer: 81.9 nM

Question: And the t1/2 [4]?
Answer: 0.92 min

Question: What about the Kd [5] of the same binder?
Answer: 6.05 nM

Question: What about the t1/2 [5] of the same binder?
Answer: 4.65 min

Question: What does the source list for B9?
Answer: binding result [6]: no binding (tested: 50 nM hGITR.mFc); binding result [7]: no binding (tested: 100 nM hGITR.mmH)

Question: Which results are given for B10?
Answer: Kd [2]: 57.5 nM; t1/2 [2]: 0.45 min; binding result [7]: no binding (tested: 100 nM hGITR.mmH)

Question: What does the source list for B11?
Answer: binding result [6]: no binding (tested: 50 nM hGITR.mFc); binding result [7]: no binding (tested: 100 nM hGITR.mmH)

Question: Which Kd [2] does the source give for B12 here?
Answer: 42.4 nM

Question: What about the t1/2 [2] of the same binder?
Answer: 0.47 min

Question: Does B12 bind [7]?
Answer: no binding (tested: 100 nM hGITR.mmH)

Question: For B13, which Kd [2] is on record?
Answer: 47.5 nM

Question: What about the t1/2 [2] of the same binder?
Answer: 0.64 min

Question: Does B13 bind [7]?
Answer: no binding (tested: 100 nM hGITR.mmH)

Question: How did the Kd [2] turn out when B14 was run?
Answer: 45.6 nM

Question: What about the t1/2 [2] of the same binder?
Answer: 0.75 min

Question: Does B14 bind [7]?
Answer: no binding (tested: 100 nM hGITR.mmH)

Source: patent US20240076396A1 (Regeneron, published 2024)
